B1: brazzein: Sweet protein of Pentadiplandra brazzeana Baillon or a recombinant form; tested batch secreted from Aspergillus oryzae (SEQ ID NO: 2) (protein)
chain: MQFTTILSIGITVFGLANTGAFAAPQPVPEAYAVSDPEAHPDDFAGMDANQLQKREDKCKKVYENYPVSKCQLANQCNYDCKLDKHARSGECFYDEKRNLQCICDYCEY

Experiments:
[1] = Lamphear et al. 2005; cited from earlier work
[2] = system: taste panel of three persons; assay: pH profile of the sweet taste of brazzein compared to sucrose, in 5 g/l whey protein; type: in vivo, human; details: 75 mg/l brazzein
Description: A taste panel of three persons estimated the pH profile of the sweet taste of brazzein compared to sucrose. 5 g/l whey protein (Lacprodan DI-9224, Arla Foods Ingredients) with 0%, 2%, 4%, 6%, 8%, 10%, 12%, 14% and 16% sucrose or 75 mg/l brazzein was adjusted with H3PO4, Na2HPO4 or NaOH to a final pH of […], 4.0, 5.0, 7.0 and 9.0.

[3] = background statement; cited from earlier work
[4] = background statement; cited from earlier work; remark: listed apart in the source
[5] = system: test taste panel of six persons; assay: Sensory evaluation of the sweetness of brazzein compared to sucrose, in 20% skim milk; type: in vivo, human; details: 50 mg/l brazzein in 20% skim milk
From the text: Sweet protein: The term “sweet protein” as used herein refers to a protein having an intense sweet taste which is suitable for sweetening of food, beverage and/or medication products for human consumption. On weight basis, a sweet protein according to the present invention may be at least 100, preferably at least 200, more preferably at least 500, and even more preferably at least 1,000, times sweeter than sucrose, when compared to a 2% solution of sucrose. For purposes of the present invention, comparison of sweetness may be determined by testing human perception of sweetness of the protein against known controls using varied concentrations of the protein being diluted in water or in an aqueous solution which avoid adsorption on surfaces, such as 20% skim milk, e.g., as described in Example 3 of the present application. A test taste panel of six persons was used to evaluate the brazzein sweetness compared to sucrose. The brazzein batch from Example 2 was diluted 30 fold to a final conc. of 50 mg/l with 20% skim milk in order to avoid adsorption on surfaces. The sweetness was estimated using a standard of 0%, 0.68%, 1.37%, 2.74%, 5.48%, 11.0%, 21.9% (w/v) sucrose diluted in 20% (v/v) skim milk. The sweetness of this 50 mg/l brazzein dilution corresponded to an average sweetness of 2.57% (w/v) sucrose±0.55% sucrose (SD). Thus, the brazzein batch is 510 times sweeter than sucrose on weight basis at the present condition. The sweet taste delay of the brazzein was estimated to be 1.5 sec±1.2 sec (SD).

[6] = system: test taste panel of three persons; assay: Sucrose replacement in yoghurt drink, sweetness in 23% Cheasy A38; type: in vivo, human
Description: A test taste panel of three persons was made to evaluate brazzein sweetness in yoghurt drink. The yoghurt product Cheasy A38 (Arla Foods), which contains 0.1% milk fat, 4.3% milk protein, was diluted to a final conc. of 1% milk protein, with sucrose or a solution of brazzein produced in A. oryzae. […] Thus, at the present condition in 23% Cheasy A38, the brazzein batch is 930 times sweeter than sucrose on weight basis.
Furthermore, the sweetness of brazzein and sucrose were additive as 6% sucrose+75 mg/l brazzein, taste like 12.7%±0.6% (SD) sucrose in 23% Cheasy A38.

Molecule | sweetness relative to the form having an N-terminal pyroglutamate [1] | sucrose equivalent sweet taste ([2]; pH 2.0) [% sucrose] | sucrose equivalent sweet taste ([2]; pH 3.0) [% sucrose] | sucrose equivalent sweet taste ([2]; pH 4.0) [% sucrose] | sucrose equivalent sweet taste ([2]; pH 5.0) [% sucrose] | sucrose equivalent sweet taste ([2]; pH 7.0) [% sucrose] | sucrose equivalent sweet taste ([2]; pH 9.0) [% sucrose] | solubility in water [3] [mg/mL] | heat stability [4] | times sweeter than sucrose on weight basis [5] [times] | sweet taste delay ([5]; SD 1.2 sec) [s] | average sweetness corresponding to sucrose ([5]; panel of six, SD 0.55% sucrose) | times sweeter than sucrose on weight basis ([6]; 75 mg/l brazzein in 23% Cheasy A38) [times] | sweetness corresponding to sucrose ([6]; 75 mg/l brazzein in 23% Cheasy A38, SD 1%) [% sucrose] | sweetness of brazzein plus sucrose, tastes like sucrose ([6]; 6% sucrose + 75 mg/l brazzein in 23% Cheasy A38, SD 0.6%) [% sucrose] | sweet-taste delay sensation ([6]; in the presence of 6% sucrose, 23% Cheasy A38)
53-amino acid form: Natural brazzein form lacking the N-terminal glutamine or pyroglutamate; amino acids 2 to 54 of SEQ ID NO: 2 (QFTTILSIGITVFGLANTGAFAAPQPVPEAYAVSDPEAHPDDFAGMDANQLQK) | twice as sweet |  |  |  |  |  |  |  |  |  |  |  |  |  |  | 
B1 |  | 6.0 | 6.0 | 4.3 | 6.3 | 5.0 | 2.7 | > 50 | can withstand heat | 510 | 1.5 | 2.57 % (w/v) sucrose | 930 | 7 | 12.7 | almost removed
